Results on 52 sequences are retold here after the supplement of paper PMC10567573.

The data set can be described thus: protein stability index of a GFP-peptide fusion (GPS, HEK-293T) (PSI 1-6); higher = more stable. To be noted: c terminus: a fixed tail appended.

± gives the standard deviation.
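Note: 24-mer peptide tiles fused after GFP, lentivirally expressed, FACS-sorted into six equal bins by GFP/DsRed ratio, decoded by Illumina sequencing, PSI is the read-weighted mean bin number.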

As for TSAAYRYYIDDVFHALVREIRRKE [RIT1], the protein stability index (treatment: DMSO) is 2.16 ± 0.36 and the protein stability index (treatment: MLN4924 1 uM, 8 h) was 2.35 ± 0.26.
Regarding TSEKLGEWNEKVTQSDLYKKTQET [TPD52L2], the protein stability index is, setting by setting: (treatment: DMSO) 5.13 ± 0.28; (treatment: MLN4924 1 uM, 8 h) 5.1 ± 0.063.
The corresponding values for TSIEPSKSSIIPFRALKRPLQFLG [ZER1] are 2.42 ± 0.38 and 2.22 ± 0.16.
The corresponding values for TSQEIFRQRFRHLRYQETPGPREA [ZNF232] are 3.63 ± 0.36 and 3.6 ± 0.28.
The corresponding values for TSQFLSLQCLQALYVDSLFFLRGR [PRAME] are 2.49 ± 0.67 and 2.96 ± 0.82.
Consider TTMNYPLWSQSYEDSSNQEEEGPS [MAGEA3], for which the protein stability index (treatment: DMSO) was found to be 5.43 ± 0.11 and the protein stability index (treatment: MLN4924 1 uM, 8 h) worked out at 5.36 ± 0.13.
As for TVGCSSQHTPDQANSDRASIGRRR [PLEKHN1], the protein stability index by setting is: (treatment: DMSO) 5.04 ± 0.36; (treatment: MLN4924 1 uM, 8 h) 5.02 ± 0.15.
TVQHGAVYSLEPRLCGGKGGFGSM [SDE2] came in with a protein stability index (treatment: DMSO) of 2.33 ± 0.37 and a protein stability index (treatment: MLN4924 1 uM, 8 h) of 2.39 ± 0.29.
Regarding TVRFCILGKESFYDTFHTVADMMY [HACD3], the protein stability index by setting is: (treatment: DMSO) 2.8 ± 0.69; (treatment: MLN4924 1 uM, 8 h) 2.85 ± 0.78.
The corresponding values for TVVKSLIDNSSEIEDEDQILENSS [FAN1] are 5.202 ± 0.02 and 5.38 ± 0.13.
The corresponding values for VAAALRYLQIFATRRSCIDESQIS [FAM189A2] are 2.37 ± 0.37 and 2.41 ± 0.17.
The corresponding values for VAEITKQLPPVVPVSKPGALRRSL [TCAP] are 5.15 ± 0.15 and 5.2 ± 0.29.
For VAIFIMSLNKRHSSGDGNSKLKSE [MFSD9], the protein stability index turned out to be 2.77 ± 1.2 (treatment: DMSO) and 2.16 ± 0.12 (treatment: MLN4924 1 uM, 8 h).
The corresponding values for VANRHGHTCLMISCYKGHREIARY [FEM1A] are 2.54 ± 0.5 and 2.41 ± 0.67.
As to VAPATMGSARSHASSRASENQSPS [ZBTB22], the protein stability index by setting is: (treatment: DMSO) 4.96 ± 0.073; (treatment: MLN4924 1 uM, 8 h) 5.07 ± 0.14.
The corresponding values for VASLERFSTYTSDKDENKLSEASG [ZC3H15] are 5.01 ± 0.42 and 4.96 ± 0.2.
With VDGPDLEMLTGQERVALANRKREC [FKBP8], the protein stability index was 4.96 ± 0.16 (treatment: DMSO) and 5.14 ± 0.2 (treatment: MLN4924 1 uM, 8 h).
The corresponding values for VDYTGQAKAQVRKAVQYEEKNPCR [STX11] are 4.37 ± 0.17 and 4.59 ± 0.18.
The sequence VEISRRLRHSNPRADPLVCATGLL [SPNS1] showed a protein stability index (treatment: DMSO) of 2.22 ± 0.11 and a protein stability index (treatment: MLN4924 1 uM, 8 h) of 2.31 ± 0.32.
Take VEKQGDTIEYLKRHNALLSKRLLA [TMEM192]: the protein stability index by setting is: (treatment: DMSO) 2.87 ± 0.13; (treatment: MLN4924 1 uM, 8 h) 2.93 ± 0.27.
The corresponding values for VEQGERALERRRRALQEEERAAAQ [ZBED3] are 5.5 ± 0.2 and 5.29 ± 0.38.
The corresponding values for VESLKRFCASTRLPPTPLLLFPEE [AUP1] are 2.81 ± 0.35 and 3.01 ± 0.35.
The corresponding values for VEVDENAYRCGSGMQMAEDSKSLK [NET1] are 4.98 ± 0.26 and 4.99 ± 0.31.
On to VFPPEVPISEKAKDLILRFCIDSE [STK38L], for which the protein stability index reads like this: (treatment: DMSO) 3.06 ± 0.35; (treatment: MLN4924 1 uM, 8 h) 3.32 ± 0.42.
The corresponding values for VGKSEILESLQDGAAESPYSHLGG [RAB40A] are 4.56 ± 0.27 and 4.46 ± 0.19.
The corresponding values for VGPAEPTLVNFHLKRSIPQVSPVR [CPN1] are 3.44 ± 0.17 and 3.4 ± 0.32.
The corresponding values for VGQDNGAVMEFHVSEDFNKMNFIK [WDFY1] are 3.29 ± 1.1 and 3.14 ± 0.36.
With VIFQREQESKNQVHRRGEYNVYST [PPP2R2B], the protein stability index is 3.06 ± 0.14 (treatment: DMSO) and 3.04 ± 0.23 (treatment: MLN4924 1 uM, 8 h).
The corresponding values for VISVVSYLILALLSVTISFRIYKS [RTN3] are 3.21 ± 0.65 and 2.8 ± 0.29.
VKEAPAPTPTSLEVSSPPDTTEEV [PDZK1]: the protein stability index reads like this: (treatment: DMSO) 5.57 ± 0.25; (treatment: MLN4924 1 uM, 8 h) 5.49 ± 0.3.
For the sequence VKILEPKTKEVQHNCQLHRISFCA [GULP1], the protein stability index turned out to be 2.33 ± 0.22 (treatment: DMSO) and 2.25 ± 0.17 (treatment: MLN4924 1 uM, 8 h).
The corresponding values for VLAEGDNASRSLYPDAEDPQLGLD [PSD2] are 5.52 ± 0.25 and 5.34 ± 0.15.
The corresponding values for VLDLRKNSHQDFWTVWSGNRASLY [PRAME] are 2.19 ± 0.3 and 2.3 ± 0.19.
The corresponding values for VLEGPAPWGFRLQGGKDFNVPLSI [PDLIM7] are 2.31 ± 0.12 and 2.44 ± 0.17.
Take VLLAVLPVLLLQITVGLVFLCLQY [MOG]: the protein stability index runs as follows: (treatment: DMSO) 3.18 ± 0.24; (treatment: MLN4924 1 uM, 8 h) 3.13 ± 0.32.
The corresponding values for VLMCGFPFLLLFLGNFFTTLRVVH [TMEM120A] are 2.95 ± 0.24 and 3.23 ± 0.48.
Regarding VLRFLPAFVRMKQLIEEGYVGEPL [GFOD1], the protein stability index by setting is: (treatment: DMSO) 2.2 ± 0.25; (treatment: MLN4924 1 uM, 8 h) 2.17 ± 0.13.
For VLRHFHLLSDGSNTLSVSYKKGRM [SLC6A17], the protein stability index reads like this: (treatment: DMSO) 2.12 ± 0.39; (treatment: MLN4924 1 uM, 8 h) 2.61 ± 0.17.
For VNLYLGRSHFLWKEPATMSWLEEN [TCF25], the protein stability index by setting is: (treatment: DMSO) 2.36 ± 0.53; (treatment: MLN4924 1 uM, 8 h) 2.54 ± 0.56.
The corresponding values for VPRTEAPAPASSTPQEPWPGPTAP [PDLIM7] are 4.98 ± 0.22 and 5.2 ± 0.27.
In the case of VRHNLGDTRLGQVSALPLPPAMKR [SPSB2], the protein stability index reads like this: (treatment: DMSO) 3.89 ± 0.097; (treatment: MLN4924 1 uM, 8 h) 3.98 ± 0.33.
Turning to VRTAAIKAMLQLHERGLKLHQTIY [INTS4], the protein stability index turned out to be 2.58 ± 0.35 (treatment: DMSO) and 2.44 ± 0.33 (treatment: MLN4924 1 uM, 8 h).
The corresponding values for VRYLNAYTGIVLLRCRKEFYQLVW [POP5] are 1.94 ± 0.34 and 2.46 ± 0.74.
VSLDISPDLPFQIKPSENHYSLLT [PCDHGC5]: the protein stability index by setting is: (treatment: DMSO) 2.22 ± 0.31; (treatment: MLN4924 1 uM, 8 h) 2.46 ± 0.17.
The corresponding values for VSRRTSEACMTHLHYKWIPVEDSH [DUSP5] are 3.04 ± 0.34 and 3.08 ± 0.21.
As for VSVRVQPRGRAHLLPNPYQQDFLG [C22orf15], the protein stability index is, setting by setting: (treatment: DMSO) 2.2 ± 0.18; (treatment: MLN4924 1 uM, 8 h) 2.13 ± 0.35.
The corresponding values for VTKITLESFLAWKKRKRQEKIDKL [ZC3H15] are 2.78 ± 0.81 and 2.6 ± 0.47.
The corresponding values for VTLEASRENSKPRAILKPRKVCVG [PPP2R2B] are 3.54 ± 0.23 and 3.8 ± 0.32.
The corresponding values for VTSTSQSPHSPDSSQSSLAQEEEE [DDIT3] are 5.53 ± 0.1 and 5.64 ± 0.12.
For the sequence VVGWFVLFYKPGIVLLLALAKYLK [GULP1], the protein stability index is, setting by setting: (treatment: DMSO) 2.25 ± 0.41; (treatment: MLN4924 1 uM, 8 h) 2.37 ± 0.56.
With VVLGSGGVGKSALTVQFVQGIFVE [RAP1B], the protein stability index is, setting by setting: (treatment: DMSO) 2.99 ± 0.05; (treatment: MLN4924 1 uM, 8 h) 2.96 ± 0.44.
The corresponding values for VYLLGNPVVWWLNLLSIALYLLSG [POMT2] are 3.31 ± 0.95 and 2.96 ± 0.56.
